Measurements taken from paper PMC10693595 (2023).

Target: VZV glycoprotein B H527P on extracellular vesicles (varicella-zoster virus (VZV)) (UniProt P09257)
Test: cryo-EM structure; cryo-electron tomography with subtomogram averaging (EMAN2) of gB[H527P] in the membranes of extracellular vesicles from BHK-21 cells; C3 symmetry applied; two classes by focused classification

Work on “VZV glycoprotein B H527P on extracellular vesicles (from UniProt P09257 72-931) (natural protein)” yielded a stoichiometry N of 3.
